Assay results taken from patent US20150201663.

Target: T1, E(Edans)-AAHAAK-(Dabcyl)-NH2 (not fully specified)
T1 chain: AAHAAK

B1: aspergillopepsin II (An01g00530) (protein)
chain: EDYSSNWAGAVLIGDGYTKVTGEFTVPSVSAGSSSSSGYGGGYGYYKNKRQSEEYCASAWVGIDGDTCETAILQTGVDFCYEDGQTSYDAWYEWYPDYAYDFNDITISEGDTIKVTVEATSKSSGSATVENLTTGQSVTHTFSGNVEGDLCETNAEWIVEDFESGDSLVAFADFGSVTFTNAEATSDGSTVGPSDATVMDIEQDGTVLTETSVSGDSVTVTYV
  enzyme activity in relative fluorescent units (rfu) per minute per mg of protein; cleavage of FRET peptide at pH 4: yields by the highest rfu value for aspergillopepsin II
  mass spectrometry of the substrate's cleavage fragments (E(Edans)-AAH and AAK-(Dabcyl)NH2): aspergillopepsin II cleaves histidine at the C-terminal in the E(Edans)-AAHAAK-(Dabcyl)NH2 substrate
